The text below walks through data of PMC10941009, “Structural basis for specific DNA sequence recognition by the transcription factor NFIL3” (The Journal of Biological Chemistry, 2024).

Assay in all cases: ITC; ITC: 20 mM Tris pH 7.5, 150 mM NaCl, 25 °C; EMSA: same buffer, 4 °C, 6% native gel in 0.5x TBE
What all share (details): protein: recombinant; tags: His6-SUMO removed by TEV; chain copies: 2; blunt

For data set [1], the target named is T1, NFIL3 E111D (human, UniProt Q16649 65-161, E111D).
T1 sequence: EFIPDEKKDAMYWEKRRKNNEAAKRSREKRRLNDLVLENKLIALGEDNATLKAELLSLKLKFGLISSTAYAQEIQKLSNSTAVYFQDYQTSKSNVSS

The target of data set [2] is C/EBPβ E309D (human, UniProt P17676 259-336, E309D).
The target in data set [3] is C/EBPα D320E (human, UniProt P49715 281-340, D320E).
The target of data set [4] is T2, NFIL3 E111Q (human, UniProt Q16649 65-161, E111Q).
T2 sequence: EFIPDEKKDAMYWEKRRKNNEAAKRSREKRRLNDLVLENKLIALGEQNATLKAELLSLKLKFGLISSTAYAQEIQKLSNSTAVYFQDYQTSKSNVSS

The target of data set [5] is T3, NFIL3 E78G (human, UniProt Q16649 65-161, E78G).
T3 sequence: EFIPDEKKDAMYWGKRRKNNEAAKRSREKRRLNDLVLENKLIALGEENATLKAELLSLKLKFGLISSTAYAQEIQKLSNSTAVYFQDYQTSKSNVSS

For data set [6], the target named is T4, NFIL3 A113V (human, UniProt Q16649 65-161, A113V).
T4 sequence: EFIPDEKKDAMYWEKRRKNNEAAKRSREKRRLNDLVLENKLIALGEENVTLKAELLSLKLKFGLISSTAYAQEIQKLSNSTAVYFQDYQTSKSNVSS

Data set [7] concerns the target T5, NFIL3 R94H (human, UniProt Q16649 65-161, R94H).
T5 sequence: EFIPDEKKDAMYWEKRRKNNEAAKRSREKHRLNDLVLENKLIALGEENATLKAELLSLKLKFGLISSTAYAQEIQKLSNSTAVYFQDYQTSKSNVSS

Data set [8] deals with T6, NFIL3 A113T (human, UniProt Q16649 65-161, A113T).
T6 sequence: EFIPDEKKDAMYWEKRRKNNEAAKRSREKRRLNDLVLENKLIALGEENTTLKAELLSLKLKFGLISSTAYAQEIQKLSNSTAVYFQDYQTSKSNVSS

In data set [9] the target is T7, NFIL3 N112D (human, UniProt Q16649 65-161, N112D).
T7 sequence: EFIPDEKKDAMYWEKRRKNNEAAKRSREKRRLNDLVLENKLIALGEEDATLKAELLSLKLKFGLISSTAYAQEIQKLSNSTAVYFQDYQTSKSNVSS

The target in data set [10] is T8, NFIL3 N84A (human, UniProt Q16649 65-161, N84A).
T8 sequence: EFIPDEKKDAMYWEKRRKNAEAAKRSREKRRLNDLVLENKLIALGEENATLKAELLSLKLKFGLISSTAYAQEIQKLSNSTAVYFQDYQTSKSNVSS

Data set [11] deals with T9, NFIL3 R95Q (human, UniProt Q16649 65-161, R95Q).
T9 sequence: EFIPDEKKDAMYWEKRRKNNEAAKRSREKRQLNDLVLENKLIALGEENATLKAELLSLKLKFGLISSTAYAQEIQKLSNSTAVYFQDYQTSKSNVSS

Sequence of C/EBPβ E309D (P17676 259-336 E309D): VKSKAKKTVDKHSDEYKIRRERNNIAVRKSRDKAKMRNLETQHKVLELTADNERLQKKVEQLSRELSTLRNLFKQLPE
Sequence of C/EBPα D320E (P49715 281-340 D320E): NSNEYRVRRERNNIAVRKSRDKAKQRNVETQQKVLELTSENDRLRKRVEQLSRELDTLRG

B1: TTACGTAA (dsDNA)
DNA 1: CATTACGTAATG
DNA 2: CATTACGTAATG
Regarding B1, the binding signal in data set [1] was approximately 8 fold weaker than WT; in data set [2], approximately 4 fold weaker than WT; in data set [3], approximately 5 fold stronger than WT. Further, the equilibrium dissociation constant (Kd) in data set [4] was determined as 200 ± 20 nM; in data set [5], 2180 ± 150 nM; in data set [6], 120 ± 10 nM; in data set [7], 4010 ± 740 nM; in data set [8], 220 ± 30 nM; in [9], 2150 ± 160 nM. Also, the equilibrium dissociation constant (Kd) came out at 1490 ± 110 nM in data set [10] and 8400 ± 720 nM in data set [11].
